Experimental data reported in the RNAGym collection of RNA variant scans (doi:10.1073/pnas.2313332121).

B1: TPR t1 (parent)
chain: GACCAAUCUGCCCUCAGAGCUCGAGAACAUCUUCGGAUGCAGAGGAGGCAGGCUUCGGUGGCGCGAUAGCGCCAACGUCCUCAACCUCCAAUGCAUCCCACCACAUGAUGAUGCCUGAAGAGCCUUGGUUUUUUG

Variants of: B1
Assay: polymerase ribozyme fitness, log enrichment relative to wild type (log ratio); higher = more active; in vitro selection for triplet polymerase activity
How it was run: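 Mutant libraries were PCR-built and transcribed for each subunit of a heterodimeric triplet polymerase ribozyme and selected for one round in triplicate at −7 °C, frozen, before gel excision of extended constructs and streptavidin-bead capture. Input and output libraries were Illumina-sequenced, keeping genotypes with ≥10 input reads and ≥1 read per output. Fitness is a logarithmic ratio of genotype to wild-type enrichment, in base 2, using inverse-variance-weighted replicate averages.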

Row | Variant | polymerase ribozyme fitness (log ratio)
1 | C22A C85U | -4.92
2 | C22A C86G | -4.67
3 | C22A C86G C114U | -5.23
4 | C22A G45A C53G C88G A111U | -3.89
5 | C22A G45A G63C C88U | -5.31
6 | C22A G45U C62U C73U | -5.77
7 | C22A G48U C56U | -4.88
8 | C22A G48U G63A C94G G120A | -5.73
9 | C22A G57C C86U | -4.83
10 | C22A G57C C102A | -5.72
11 | C22A G57C G69U C76A | -5.3
12 | C22A G60C | -5.44
13 | C22A G60C A90G C123U | -5.34
14 | C22A G69U | -3.88
15 | C22A G110A | -4.72
16 | C22G A26C G39U A50G C72U U112C | -4.01
17 | C22G A26C G42C A84U | -6.04
18 | C22G A29C C40A G120C | -5.67
19 | C22G A29C G61U G63C C97A C124A | -6.38
20 | C22G A41C G44C G69U C79G A90C | -5.69
21 | C22G A41U G44U | -5.29
22 | C22G A41U G63U U78C C99G | -6.66
23 | C22G A43U U106A C115A | -1.37
24 | C22G A46C C62G A74U | -6.42

Row | Variant | polymerase ribozyme fitness (log ratio)
25 | C22G A50U U96C A119G | -3.9
26 | C22G A68G | -5.5
27 | C22G A90G | -3.06
28 | C22G C34A G52C | -4.14
29 | C22G C34G C102U C123A | -4.03
30 | C22G C40G G65U G69A C99A C101A C123U | -6.38
31 | C22G C64U | -2.83
32 | C22G C64U C115U A121U | -2.57
33 | C22G C70U | -3.87
34 | C22G C72A C88U | -2.7
35 | C22G C72U | -3.13
36 | C22G C72U C114A | -3.16
37 | C22G C72U U96C C114G C123U G127U | -7.69
38 | C22G C73A | -3.17
39 | C22G C73G U133G | -4.48
40 | C22G C76G | -3.73
41 | C22G C82G U96A | -3.98
42 | C22G C82U | -3.57
43 | C22G C86U C123A | -3.08
44 | C22G C94G | -4.33
45 | C22G C94U C101G | -5.92
46 | C22G C115A | -4.07
47 | C22G G23A G61U C89U C114U | -3.99
48 | C22G G23A U125A G128U | -4.85

Row | Variant | polymerase ribozyme fitness (log ratio)
49 | C22G G39C A50G G51A C115U | -5.65
50 | C22G G42C C115U | -3.85
51 | C22G G42C G61U C89U | -5.61
52 | C22G G44U G48U G63U A91C A111U | -6.95
53 | C22G G47A G120U G127U | -3.88
54 | C22G G47C C104A | -4.76
55 | C22G G51A G61U U112G | -5.05
56 | C22G G57A A68C C80A C101U C124A | -6.21
57 | C22G G60U C85A | -4.53
58 | C22G G61A G93A | -3.75
59 | C22G G63A C114U | -3.48
60 | C22G G63C | -4.13
61 | C22G G69A | -3.64
62 | C22G G69C G77U C101G C115U | -5.91
63 | C22G G71U C89A | -5.9
64 | C22G G77C C88G C123U | -3.61
65 | C22G G110U U112G | -7.26
66 | C22G G110U U125G | -4.31
67 | C22G G120A | -2.9
68 | C22G U38A C64U G77U G120A | -3.99
69 | C22G U78C | -3.01
70 | C22G U78G | -4.47
71 | C22G U87A C114A | -2.89
72 | C22G U92G | -5.35

Row | Variant | polymerase ribozyme fitness (log ratio)
73 | C22G U96C | -3.36
74 | C22G U106C C123G U133G | -2.48
75 | C22G U112G | -2.35
76 | C22U A24U G57U C82U C115A | -6.34
77 | C22U A26G G52C A105C C124U | -4.45
78 | C22U A27C A41U A50U G60C C82U | -6.98
79 | C22U A27C U87G | -5.65
80 | C22U A37C | -4.23
81 | C22U A37U A100C | -5.02
82 | C22U A41C G60A C99U G110A U129G | -6.8
83 | C22U A41G C72U C124U | -3.44
84 | C22U A41U C73U C82G A83U C124U | -4.15
85 | C22U A43C C123G | -4.32
86 | C22U A43G G61U C115A | -5.75
87 | C22U A46C C70U | -6.66
88 | C22U A66U G120A | -4.81
89 | C22U C40G G69U C79U C82G | -3.66
90 | C22U C49U C89A C123U | -6.02
91 | C22U C53A C72U C98U C123U | -4.73
92 | C22U C53G G61A U106A A118G | -5.66
93 | C22U C62A | -4.41
94 | C22U C62A U106G A108C A121G G122U | -7.34
95 | C22U C70U G117C | -6.77
96 | C22U C72A | -3.91

Row | Variant | polymerase ribozyme fitness (log ratio)
97 | C22U C72G C82A | -5
98 | C22U C73G C82A G120U U129A | -5.92
99 | C22U C82A U87G | -5.14
100 | C22U C82U | -4.56
101 | C22U C94A | -4.02
102 | C22U G44C | -4.2
103 | C22U G51A G61C U109A G117C | -7.16
104 | C22U G60A U96G | -4.57
105 | C22U G60C C104A | -5.43
106 | C22U G61A | -3.53
107 | C22U G63C G120U | -4.89
108 | C22U G63C U78G U112A | -4.23
109 | C22U G69A C104G A111C | -7.35
110 | C22U G69C C82A U112C A121C U132A | -3.46
111 | C22U G71U | -4.03
112 | C22U G117A | -4.58
113 | C22U G120C | -2.63
114 | C22U G120C U130G | -4.69
115 | C22U U38G C73U | -4.47
116 | C22U U54G | -3.24
117 | C22U U55G U106A | -3.56
118 | C22U U87A | -3.71
119 | G23A A50U G61U G71C A100C A105C U116C U125A G128U | -5.77
120 | G23A C40A | -4.86

Row | Variant | polymerase ribozyme fitness (log ratio)
121 | G23A C56U G110C | -5.74
122 | G23A C79A G110C U125G | -6.79
123 | G23A C82G | -5.43
124 | G23A G39U C53A G69U G71A C115G G117A | -4.86
125 | G23A G48A C86G | -6.91
126 | G23A G48U | -5.02
127 | G23A G61A U87C | -6.59
128 | G23A G61U | -4.38
129 | G23A G63U | -7.02
130 | G23A G77C G120C | -6.71
131 | G23A G77U | -6.47
132 | G23A G120A | -4.02
133 | G23A G120C | -2.89
134 | G23C A27C C53U U54C C62A C88G C99U C124U U130A U131G | -7.2
135 | G23C A27G G110U | -6.38
136 | G23C A29C G48C U106G C114U | -8.24
137 | G23C C34U U38A A46U C86G G110C | -8.09
138 | G23C C56A U59G G113A | -6.74
139 | G23C C123A | -6.41
140 | G23C G44U C88U A121G | -6.39
141 | G23C G45C G51U G71C G120C | -6.31
142 | G23C G58A G61A C94G A111C | -7.65
143 | G23C G120C | -5.28
144 | G23C U59C C98U C101A U112C | -7.02

Row | Variant | polymerase ribozyme fitness (log ratio)
145 | G23U A24C C31G C72U A83C A90U G93A G107U U109A | -6.51
146 | G23U A29G C70A A83U C85A C115U | -7.23
147 | G23U A37G C94G | -6.35
148 | G23U A121C | -3.5
149 | G23U C72G | -6.36
150 | G23U C123U | -4.37
151 | G23U G42A A46U G69U U109A C123U | -5.99
152 | G23U G52A C53G C115U | -7.2
153 | A24C A37C A121U | -6.59
154 | A24C C56U C114G | -5.71
155 | A24C G39C C114U G120C | -5.54
156 | A24C G61U | -6.19
157 | A24C G63A | -6.87
158 | A24C G65A C85A C101G G113C | -6.86
159 | A24C G120A | -4.02
160 | A24G A41G C88U U92A U112A U131C | -3.58
161 | A24G A46G G57U A100C | -4
162 | A24G A46U C72G G93C G120U C124U | -5.77
163 | A24G A111G G122U | -5
164 | A24G A119U | -2.54
165 | A24G C40A G117A C124G | -4.17
166 | A24G C40G G52U | -4.31
167 | A24G C56G C72U C86U U92A U129C | -6.8
